The values that follow come from patent publication US4546077A, “Leucine dehydrogenase and a process for production thereof” (Unitika Ltd., priority 1982, dated 1985).

Substrate in data set [1]: CC(C)C[C@H](N)C(=O)O
Put plainly: Michaelis constants of leucine dehydrogenase. Conditions: other: purified leucine dehydrogenase from Bacillus stearothermophilus; pH 11.0; 55.0 °C. Format: biochemical. On the procedure:
(§1) Next, physico-chemical properties of the thus obtained leucine dehydrogenase of the present invention are shown below, wherein the leucine dehydrogenase was obtained from Bacillus stearothermophilus.
(§2) A solution mixture containing 1.25 mM NAD and 10 mM L-leucine in a […] glycine-KCl-KOH buffer solution having pH 11 was prepared. A suitable amount of a leucine dehydrogenase was added to the solution mixture and the increment of a reduced type NAD per unit time at 55° C. was measured as an increment of the absorbancy at 340 nm. The amount of the enzyme which made it possible to increase the absorbancy of 1μ mole of NADH at 340 nm per minute was set at 1 unit.

Substrate in data set [2]: NC(=O)c1ccc[n+]([C@@H]2O[C@H](COP(=O)([O-])OP(=O)(O)OC[C@H]3O[C@@H](n4cnc5c(N)ncnc54)[C@H](O)[C@@H]3O)[C@@H](O)[C@H]2O)c1
Put plainly: Michaelis constants of leucine dehydrogenase. Type of data set: biochemical. The conditions noted are these: other: purified leucine dehydrogenase from Bacillus stearothermophilus; pH 11.0; 55.0 °C. On the procedure: as §1, §2

B1: leucine dehydrogenase obtained from Bacillus stearothermophilus (Geobacillus stearothermophilus) (protein)
chain: MELFKYMETYDYEQVLFCQDKESGLKAIIAIHDTTLGPALGGTRMWMYNSEEEALEDALRLARGMTYKNAAAGLNLGGGKTVIIGDPRKDKNEAMFRAFGRFIQGLNGRYITAEDVGTTVADMDIIYQETDYVTGISPEFGSSGNPSPATAYGVYRGMKAAAKEAFGSDSLEGKVVAVQGVGNVAYHLCRHLHEEGAKLIVTDINKEVVARAVEEFGAKAVDPNDIYGVECDIFAPCALGGIINDQTIPQLKAKVIAGSADNQLKEPRHGDIIHEMGIVYAPDYVINAGGVINVADELYGYNRERAMKKIEQIYDNIEKVFAIAKRDNIPTYVAADRMAEERIETMRKARSPFLQNGHHILSRRRAR
notes: the leucine dehydrogenase was obtained from Bacillus stearothermophilus; endogenous in cells; host or cells: Bacillus stearothermophilus (enzyme isolated and purified from the cultured bacteria)
As to B1, the Km (commonly the substrate concentration at which the rate is half of its maximum) in data set [1] is 1500 µM; in data set [2], 400 µM.
